Experimental data published in patent US8586570B2, “Sox-based kinase sensor” (Massachusetts Institute of Technology, priority 2006, dated 2013).

Key:
Assay in all cases: Cross-reactivity of PKCα-S10 with PKC isozymes
Format in all cases: biochemical
Conditions in all cases: peptide 1 μM, isozyme 2 ng
PKCν = biological target: T1, PKCν (Homo sapiens, UniProt O94806)
T1 sequence (O94806 1-890): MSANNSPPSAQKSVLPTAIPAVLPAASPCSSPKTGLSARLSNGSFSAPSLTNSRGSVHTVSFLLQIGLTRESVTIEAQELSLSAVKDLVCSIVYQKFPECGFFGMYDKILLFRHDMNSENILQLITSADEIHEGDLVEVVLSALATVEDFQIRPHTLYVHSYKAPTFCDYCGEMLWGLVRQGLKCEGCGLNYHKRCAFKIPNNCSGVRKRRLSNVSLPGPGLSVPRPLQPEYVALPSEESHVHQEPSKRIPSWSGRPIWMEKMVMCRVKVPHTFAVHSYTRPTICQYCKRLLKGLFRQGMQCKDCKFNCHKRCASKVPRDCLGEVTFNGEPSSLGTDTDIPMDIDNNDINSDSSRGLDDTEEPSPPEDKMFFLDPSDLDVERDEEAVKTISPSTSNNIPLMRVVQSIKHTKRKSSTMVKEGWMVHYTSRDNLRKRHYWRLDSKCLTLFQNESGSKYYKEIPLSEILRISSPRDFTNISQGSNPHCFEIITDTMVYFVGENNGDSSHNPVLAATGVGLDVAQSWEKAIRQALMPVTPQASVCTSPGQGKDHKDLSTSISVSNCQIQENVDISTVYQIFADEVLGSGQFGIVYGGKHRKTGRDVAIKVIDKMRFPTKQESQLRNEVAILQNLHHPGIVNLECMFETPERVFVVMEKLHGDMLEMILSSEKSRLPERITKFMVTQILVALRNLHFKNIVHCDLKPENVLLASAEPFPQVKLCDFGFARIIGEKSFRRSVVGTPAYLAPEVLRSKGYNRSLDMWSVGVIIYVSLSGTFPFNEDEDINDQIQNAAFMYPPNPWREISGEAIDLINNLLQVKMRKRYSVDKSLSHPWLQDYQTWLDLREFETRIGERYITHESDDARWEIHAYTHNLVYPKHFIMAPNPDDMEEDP
Protocol: (§1) With the kinetic parameters at hand it is possible to test the cross-reactivity of PKCα-S10 with PKC isozymes. In 12 separate reactions PKCα-S10 (1 μM) is subjected to phosphorylation with PKCα, PKCβI, PKCβII, PKCγ, PKCδ, PKCε, PKCζ, PKCη, PKCθ, PKCι, PKCμ and PKCν (2 ng).

PKCμ = biological target: T2, PKCμ (Homo sapiens, UniProt Q15139)
T2 sequence (Q15139 1-912): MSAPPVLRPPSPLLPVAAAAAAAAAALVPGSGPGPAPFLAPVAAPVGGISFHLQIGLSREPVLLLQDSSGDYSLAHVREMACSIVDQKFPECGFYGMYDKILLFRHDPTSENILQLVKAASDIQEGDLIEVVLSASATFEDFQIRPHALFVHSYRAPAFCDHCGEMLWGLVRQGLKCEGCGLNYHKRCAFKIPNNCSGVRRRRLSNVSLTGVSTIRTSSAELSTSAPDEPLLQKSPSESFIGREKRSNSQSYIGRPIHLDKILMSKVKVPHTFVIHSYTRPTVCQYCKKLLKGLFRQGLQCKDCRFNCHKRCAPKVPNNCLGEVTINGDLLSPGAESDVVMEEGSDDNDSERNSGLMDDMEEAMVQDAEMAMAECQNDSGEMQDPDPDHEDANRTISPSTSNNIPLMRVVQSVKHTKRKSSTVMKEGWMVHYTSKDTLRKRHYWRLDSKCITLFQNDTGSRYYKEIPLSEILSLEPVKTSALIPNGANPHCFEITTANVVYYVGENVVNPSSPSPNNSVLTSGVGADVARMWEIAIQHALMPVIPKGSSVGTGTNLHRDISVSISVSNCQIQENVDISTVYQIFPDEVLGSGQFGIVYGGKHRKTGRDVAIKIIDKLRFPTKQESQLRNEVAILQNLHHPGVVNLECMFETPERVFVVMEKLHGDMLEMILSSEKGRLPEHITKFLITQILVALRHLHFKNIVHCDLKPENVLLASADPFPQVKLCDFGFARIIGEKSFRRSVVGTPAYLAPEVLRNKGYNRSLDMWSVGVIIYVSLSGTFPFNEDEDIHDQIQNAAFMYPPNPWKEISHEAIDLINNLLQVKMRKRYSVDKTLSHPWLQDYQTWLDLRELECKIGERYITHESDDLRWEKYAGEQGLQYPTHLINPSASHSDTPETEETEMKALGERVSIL
Protocol: as §1

PKCι = biological target: T3, PKCι (Homo sapiens, UniProt P41743)
T3 sequence (P41743 1-596): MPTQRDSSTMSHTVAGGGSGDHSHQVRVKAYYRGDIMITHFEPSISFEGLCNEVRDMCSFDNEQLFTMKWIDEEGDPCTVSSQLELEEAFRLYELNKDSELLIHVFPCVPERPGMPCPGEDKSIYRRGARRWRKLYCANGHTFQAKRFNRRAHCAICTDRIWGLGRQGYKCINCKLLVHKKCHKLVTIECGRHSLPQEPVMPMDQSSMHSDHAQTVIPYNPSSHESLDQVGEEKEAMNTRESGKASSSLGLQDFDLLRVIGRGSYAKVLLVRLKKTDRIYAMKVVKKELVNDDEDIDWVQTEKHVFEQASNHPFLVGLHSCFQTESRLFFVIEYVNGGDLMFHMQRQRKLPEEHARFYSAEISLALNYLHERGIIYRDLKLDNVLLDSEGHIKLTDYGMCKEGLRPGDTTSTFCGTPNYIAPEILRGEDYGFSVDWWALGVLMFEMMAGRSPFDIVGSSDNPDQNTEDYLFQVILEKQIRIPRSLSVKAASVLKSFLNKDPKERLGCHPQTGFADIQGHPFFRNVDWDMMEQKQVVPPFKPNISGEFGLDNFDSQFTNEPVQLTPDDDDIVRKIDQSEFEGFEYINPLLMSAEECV
Protocol: as §1

Substance: Ac-RRR-C(Sox)-ASFRRKA-CONH2 [PKCα-S10(P10), Sox chemosensor with extended recognition domain for PKCα]
- activity of isozyme on peptide (PKCν): no activity
- activity of isozyme on peptide (PKCμ): no activity
- activity of isozyme on peptide (PKCι): very little activity
